Results taken from paper PMC6265302, “Widespread bacterial lysine degradation proceeding via glutarate and L-2-hydroxyglutarate” (Nature Communications, 2018).

Biological target: the molecule itself
Assay: crystal structure; CsiD at 13 mg/mL, sitting drop vapour diffusion, 18 °C; apo and with glutarate, succinate or N-oxalylglycine; symmetry P42(1)2, two copies in the asymmetric unit, tetramer generated by crystallographic symmetry

B1: CsiD (carbon starvation induced protein D), glutarate hydroxylase (enzyme, Escherichia coli, UniProt P76621 1-325, looked up)
chain: MNALTAVQNNAVDSGQDYSGFTLTPSAQSPRLLELTFTEQTTKQFLEQVAEWPVQALEYKSFLRFRVAKILDDLCANQLQPLLLKTLLNRAEGALLINAVGVDDVKQADEMVKLATAVAHLIGRSNFDAMSGQYYARFVVKNVDNSDSYLRQPHRVMELHNDGTYVEEITDYVLMMKIDEQNMQGGNSLLLHLDDWEHLDNYFRHPLARRPMRFAAPPSKNVSKDVFHPVFDVDQQGRPVMRYIDQFVQPKDFEEGVWLSELSDAIETSKGILSVPVPVGKFLLINNLFWLHGRDRFTPHPDLRRELMRQRGYFAYASNHYQTHQ
notes: CsiD of Escherichia coli, ORF amplified from E. coli BW25113 and inserted into pET28a; crystals were apo or held glutarate, succinate or N-oxalylglycine; also called glutarate-2-hydroxylase; G-2-H; source: E. coli BL21 (DE3), purified (Ni-NTA)
Q: For B1, which “stoichiometry N” value is on record?
A: 4
